Target: the molecule itself
Test: visible aggregation in tubes; 2 uM rEsp_N in phosphate-citrate buffer, pH 3.6 to 8 tested; aggregates at pH 4.0-4.2 seen as a ring on the glass wall after 24 h at 37 °C, 200 rpm

B1: recombinant Esp_N domain (N-terminal domain of the enterococcal surface protein Esp, amino acids 50-743) (domain or fragment)
chain: QMGEGRLANYSASGNTFQENPGYTKNYNFSDLQFNPKAITGDVLQGNTIDFEVYGKHNIAASTANWEIRLQLDERLAQYVEKIQVDPKKGVGNSRRTFVRINDSLGRPTNIWKVNYIRANDGLFAGAETTDTQTAPNGVITFEKNLDEIFKEIGADNLKSDRLMYRIYLVSHQDDDKIVPGIESTGYFLTDQDDFYNKLDVSENNSDQFKHGSVNTKYEEANIQTKDGSGSTGANGAIILDHKLTKEKNFSYSTSAKGTPWYANYKIDERLVPYVSGIQMHMVQADKVAYNVAFESGKKVADLAIERREGHENYGMGSITDNDLTKLIDFANASPRPIVVRYVLQLTKPLDEILEEMKAADKIEENAPFGEDFIFDSWLSDTNKKLIQNTYGTGYYYLQDIDGDGNPDDKEESGDTNPYIGKPELEEVYDVDTTVKGKVFIHELAGTGHKAQLVDKEGTVLAEKTIAPNEKDGAPISDTVEFEFTGVDSSKLIAKDELKIQIVSPGFDKPEEGSTVIKESPKAVDKQTVVVGFKPDAKESIRNNKNLPEDAEYSWKTEPDTSNVTDSTKGIVTVKIGNRTFDVDVEFAVKASQAMENDATYVPITTTPETTIQSGKPTFDKPDVPLANDAFSVLDVYNKDFGNASVDANTGIVTFTPAKGVGESEPITGTIPIKIVYQDGSVGTTDLAVTVSKN
notes: Enterococcal surface protein Esp of Enterococcus faecalis, amplified from strain 11279; N-terminal domain, amino acids 50-743 of the 1873-residue protein; No cleavage of the tag is mentioned; also called N-terminus of Esp; not shown: His tag (from the vector pET46-Ek/LIC)
- binding result: binds

Source: PMC7101364, “The biofilm-associated surface protein Esp of Enterococcus faecalis forms amyloid-like fibers” (NPJ Biofilms and Microbiomes, 2020)
